# Data: the nanobody polyreactivity screen of Harvey et al. (2022)
# Experiment: yeast display, Sf9 membrane polyspecificity reagent, FACS + sequencing; frameworks hold sequencing errors
# Method in brief: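 Sorting gates, low and high (top ~1%), were placed on anti-HA fluorescence to track expression and on streptavidin fluorescence to track reagent binding. A clone's polyreactivity label is taken from the gate it came out of. The reagent was 10% biotinylated, detergent-solubilized Sf9 membrane, applied for 1 hour at 4 °C to galactose-induced yeast display cells.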
row,Sequence,polyreactivity (PSR sort gate)
1,QVQLVESGGGLVQAGGSLRLSCAASGRIFKINAMGWYRQAPGKERELVAAITRSGGTTYYADSVMGRFTISRDHAKNTVYLQMNSLKPEDTAVYYCAARVVQYPYYYWGQGTQVTVSS,high polyreactivity
2,QVQLVESGGGLVQAGGSLRLSCAASGRIFKLNAMGWYRQAPGNERELVAAITFAGGSTYYADSVKGRFTISRDIAKNTVYLQMNSLKPEDTAVYYCNADFSNVEMDYWGQGTQVNVSS,low polyreactivity
3,QVQLVESGGGLVQAGGSLRLSCAASGRIFKLYAMGLYRQAPGKERELVAASSKSGGSTYYADSVKGRFKISRDNAKNTVYLQMNSLKPEDSAVYYCNADPVRSGLDYWGQGTQVTVSS,high polyreactivity
4,QVQLVESGGGLVQAGGSLRLSCAASGRIFKNYAKGWYRQAPGKERELVAAISWSGGRTYYSDSVKGRFTISRDNAKNTVYLQMNSLKPEYTAVYYCAARFRRTRVTYYYWGQGTQVTVSS,high polyreactivity
5,QVQLVESGGGLVQAGGSLRLSCAASGRIFKNYAMGWYRQAPGKERELVAAITWSGGRTYYADSVKGRFTISRDNAKNTVYLQMNSLKPEDTAVYYCATAARRGPTSIEPFGYGSWGQGTQVTVSS,high polyreactivity
6,QVQLVESGGGLVQAGGSLRLSCAASGRIFKRNAKGWYRQAPGKEWELVATISGSGGSTYYADSVKGRFTISRDNAKNTVYLQMNSLKPEDTAVYYCAAVPGYPRDSLYNYWGQGSQVTVSS,high polyreactivity
7,QVQLVESGGGLVQAGGSLRLSCAASGRIFKRNAMGWYRQAPGKERELVAAISWRGGSTYYADSVKGRFTISRDNAKNTVYLQMNSLKPEDTAVYYCNVGYGGSSDGGYDYWGQGTQVTVSS,high polyreactivity
8,QVQLVESGGGLVQAGGSLRLSCAASGRIFKRNVMGWYRQAPGKERELVAAIRYSGGNTYYADSVKGRFTISRDNAKNTVYLQMNSLKPEDTAVYYCAAQQWSYTQSRLYDMGYWGQGTQVTVSS,high polyreactivity
9,QVQLVESGGGLVQAGGSLRLSCAASGRIFKRYTMGWYRQAPGKERELVAGITFSGGSTYYADSVKGRFTISRDNAKNTVYLQMHSLKPEDTAVYDCNARVPPQGWGPWKAFDYWGQGTQVTVSS,low polyreactivity
10,QVQLVESGGGLVQAGGSLRLSCAASGRIFKSYTMGWYRQAPGKERALVAGITWSGGSTYYADSVKGRFTISRDNAKNTVYLQMNSLKPDDTAVYYCATKTFYNYGFWGQGTQVTVSS,high polyreactivity
11,QVQLVESGGGLVQAGGSLRLSCAASGRIFKSYVMGWYRQATGKERELVAAITRTGGSTYYADSVKGRFTISRDNAKNTVYLQMNSLKPVDTAVYYCNARYSWPRATWYDYWGQGTQVTVSS,high polyreactivity
12,QVQLVESGGGLVQAGGSLRLSCAASGRIFKTYAMGWYRQAPGKERELDAAITASGGRTYYADSVKGRFTISRDNAKNTVYLQMNSLKPEDTAVYYCAADSGNEYDYWGQGTQVTVSS,high polyreactivity
13,QVQLVESGGGLVQAGGSLRLSCAASGRIFKTYAMGWYRQAPGKERELVAAITASGGRTYYADSVKGRFTISRDNAKNTVYLQMNSLTPEDSAVYYCAAPLLRDLRSPYSYNYWGQGTQVTVSS,low polyreactivity
14,QVQLVESGGGLVQAGGSLRLSCAASGRIFKVYAMGWSRQAPGKERELVAAITSGGSTNYADSVKGRFTISRDNAKTTVYLQMNSRKPEDTAVYYCAVVSGRWSAVQYDYWGQGTQVTVSS,high polyreactivity
15,QVQLVESGGGLVQAGGSLRLSCAASGRIFKVYAMGWYRQAHGKEREMVAAITSRGGSTYYADSVKGRFTISRDNSKNTVYLQMNSLKPEDTAVYYCAAARGLPSNKYYYWGQGTQVTVSS,high polyreactivity
16,QVQLVESGGGLVQAGGSLRLSCAASGRIFKVYAMGWYRQAPGKERELVATISRGGSTYYADSVKGRFTISRDNAKNTVYLQMNSLKPEDTAVYYCATQRERYYWFGAWSYDYWGQGTQVTVSS,low polyreactivity

row,Sequence,polyreactivity (PSR sort gate)
1,QVQLVESGGGLVQAGGSLRLSCAASGRIFKWYAMGWYRQAPGKERELVAAISRSGGTTYYADSVKGRFTISSDNAKNTDYLQMNSLKPEDTAVYYCATRNIYFSTVDYWGQGTQVTVSS,high polyreactivity
2,QVQLVESGGGLVQAGGSLRLSCAASGRIFKYNAMGWYRQAPGKERELVAAISGGGSTNYADSVKGRFTISRDNAKNTVYLQMNSLKPEDTAVYYCAKGYRRVYGPFYYWGQGTQVTVSS,low polyreactivity
3,QVQLVESGGGLVQAGGSLRLSCAASGRIFKYYAMGWYRQAPGKERELVAAITRNGGITYYADSVKGRFTISRDNAKNTVYLQMNSLKPEDTAVYYCAAGQRGRYSISSDEYNYWGQGTQVTVSS,high polyreactivity
4,QVQLVESGGGLVQAGGSLRLSCAASGRIFKYYAMGWYRQAPGKERELVARISRSSGNTYYADSVKGRFTISRDNAKNTVYLQMNSLKPEDTAVYYCATVPHYNGFNYWGQGTQVTVSS,high polyreactivity
5,QVQLVESGGGLVQAGGSLRLSCAASGRIFKYYAMGWYRQAPGKERELVARISSGGGRTYYADSVKGRFTISRDNAKNTVYLQMNSLKPEDTAVYYCAADPPASYHTWYGYWGQGTQVTVSS,high polyreactivity
6,QVQLVESGGGLVQAGGSLRLSCAASGRIFKYYAMGWYRQAPGKERELVSTISRGGGSTFYADSVKGRFTISRDNAKNTVYLQMNSLKPEDTAVYYCAVDVTFKRWYSTASSTHDYWGQGTQVTVSS,high polyreactivity
7,QVQLVESGGGLVQAGGSLRLSCAASGRIFKYYVMGWYRQAPGKERELVATISSGSGTNYADSVKGRFTISRDNAKNTVYLQMNSLKPEDTAVYYCAARWTPRVRGYNYWGQGTLVTVSS,high polyreactivity
8,QVQLVESGGGLVQAGGSLRLSCAASGRIFLFYDMGWYRQAPGKERELVATISFRGGSTYYADSVKGRFTISRDNAKNTVYLQMNSLKPEDTAVYYCAKQNKRGYSTSAYYYWGQGTQVTVSS,low polyreactivity
9,QVQLVESGGGLVQAGGSLRLSCAASGRIFLGHDMGWYRQAPGKERELVATISSSGDSTYYADSVKGRFTISRDNAKNTVYLQMNSLKPEDTAVYYCAVKSTDVPVRGSPYDYWGQGTQVTVSS,low polyreactivity
10,QVQLVESGGGLVQAGGSLRLSCAASGRIFLGYAMGWYRQAPGKEREFVAAITSSGGSTYYADSVKGRFTISRDNAKNTVYLLMNSLKPEDTAVYYCAARVTKLRTSSLRGYWGQGTQVTVSS,high polyreactivity
11,QVQLVESGGGLVQAGGSLRLSCAASGRIFLRYTMGWYRQAPGKERELVAAISARTTGTYYADSVKGRFTISRDNAKNTVYLQMNSLKPEDTAVYYCAAKSKLSRDLFSWGQGTQVTVSS,low polyreactivity
12,QVQLVESGGGLVQAGGSLRLSCAASGRIFLSYAMGWYRQAPGKEREFVAAITSSGGSTSYADSVKGRFTISRDNAKNTVYLQMNSLKPEDTAVYYCNARAYIFGQLKYDYWGQGTQVTVAS,low polyreactivity
13,QVQLVESGGGLVQAGGSLRLSCAASGRIFLTNAMGSYRQAPGKERELVAAIRFSGGRTYYADSVKGRFTISRDNAKNTVYLQMNSLKPEDNAVYYCAADPPRTRYRNARFDYWGQGTQVTVSS,high polyreactivity
14,QVQLVESGGGLVQAGGSLRLSCAASGRIFLTNTMGWYRQAPGKERELVAGISRGGRTYDADSVKGRFTISRDNAKNTVYLLKNSLKPEDTAVYYCAGRHRTPIYPYKRDYWGQGTQVSVSS,high polyreactivity
15,QVQLVESGGGLVQAGGSLRLSCAASGRIFLVNAMGWYRQAPGKEREFVAAITDNPGSTYYADSVKGRFTISRDNAKNTVYLQMNSLKPEDTAVYYCAKQRGNKRIGYDSWGQGTQVTVSS,low polyreactivity
16,QVQLVESGGGLVQAGGSLRLSCAASGRIFLYYAMGWYRQAPGKERELVAASTYTDGSTYYADSVKGRFTISRDNAKNTVYLQMNSLKPEDTAVYYCAAEFYYYDYWGQGTQVTVSS,low polyreactivity
